According to patent US20240390433A1, “GENETICALLY MODIFIED BACILLUS SUBTILIS STRAIN AND USE AS A LIVE DELIVERY AND […]” (BiomEdit, LLC, priority 2021, published 2024):
Where “and” joins values, the source holds several entries; their conditions need not be identical. Identical values can stand only once. Entries after “also recorded” stand apart in the source; their conditions may differ.

B1: EAT-1F2 (protein, listed as Camelus sp.)
VHH: EVQLVESGGGLVQAGGSLRLSCAGSGRTGSLYSMGWFRQAPGKEREFVAAITWRPSSTYYADSVKGRFTISRDDAKNTVYLQMNSLKPEDTAVYFCAARPRGGLSPTPQAYDYWGQGTQVTVSSAAASGSLEQKLISEEDLNGAAHHHHHHGAA
modifications: REGION 1..154: note = Description of sequence: EAT-1F2 antibody
B2: VHH antibody ENB-1D11 (VHH)
VHH: EVQLVESGGGLVQTGGSLRLSCTASGTIDMTYGLIWYRQAPGKERELVASIRRDGRTNYADSVKGRFTISIDNAKNSIHLQMNSLKPDDTARYYCNSPYHALWGQGTQVTVSS
B3: VHH antibody ENB-1A4 (VHH)
VHH: EVQLVESGGGLVQAGGSLRLSCAASGSIFSTNVMGWYRQAPGKQREFVAGITIGGTARYPDSVKGRFTISRDNTQNTVYLQMNNLKPEDTAVYYCNAVLPSDQRRWSWGQGTQVTVSS
B4: EAT-1G4 (protein, listed as Camelus sp.)
VHH: EVQLVESGGGLVQPGGSLRLSCAASGSIATINDMGWFRQAPGKQRDWVATIVSDGSTAYADSVKGRFTISRDNAKNTVYLQMNSLKPEDTAVYYCSARRHYGQGTQVTVSSAAASGSLEQKLISEEDLNGAAHHHHHHGAA
modifications: REGION 1..141: note = Description of sequence: EAT-1G4 antibody

Assays:
[1] = system: Clostridium perfringens alpha toxin; assay type: biochemical
[2] = molecular target: recombinant NetB (wild type NetB), Clostridium perfringens (Clostridium perfringens); assay: cell-based or functional assay

| Molecule | neutralization of alpha toxin lecithinase activity (in words) [1] | residual lecithinase activity [1] | lowest VHH concentration neutralizing NetB haemolysis [2] | lecithinase activity neutralized [1] [%] |
| --- | --- | --- | --- | --- |
| B1 | high neutralizing capacity; also recorded: unable to completely neutralize | about 25% |  |  |
| B2 |  |  | 1.25 µM and 0.625 µM |  |
| B3 |  |  | 1.25 µM and 0.625 µM |  |
| B4 | less capable of neutralizing |  |  | 100 |
